Reference: paper PMC5606208

How the values were obtained:
[1] = target: Phos-HP1α (HP1α co-expressed with CKII, phosphorylated in the N-terminus and hinge) (human); test: native MS
[2] = target: WT HP1α (human heterochromatin protein 1 alpha, unmodified) (human); test: AUC

Substance	stoichiometry N [1]	Kd [2]
Phos-HP1α (HP1α co-expressed with CKII, phosphorylated in the N-terminus and hinge) (natural protein)	2	–
WT HP1α (human heterochromatin protein 1 alpha, unmodified) (natural protein)	–	1120 nM
